Source: US20050037969A1 (ARBOR VITA, published 2005)
Ends that are not written are not given here. * marks the point of attachment. Biotin = O=C1N[C@H]2[C@H](CS[C@H]2CCCCC(=O)*)N1

T1: GST-CASK PDZ domain fusion protein (Homo sapiens, UniProt O14936 486-575)
T1 construct: also called Homo sapiens CASK protein
T1 sequence: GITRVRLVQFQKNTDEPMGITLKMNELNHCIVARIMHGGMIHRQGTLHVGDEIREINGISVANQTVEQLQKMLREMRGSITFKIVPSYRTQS

T2: GST-LIM protein PDZ domain fusion protein (Human, UniProt Q96HC4 2-85)
T2 construct: also called Human LIM protein; not shown: glutathione S-transferase encoded by vector pGEX-3X (Pharmacia)
T2 sequence: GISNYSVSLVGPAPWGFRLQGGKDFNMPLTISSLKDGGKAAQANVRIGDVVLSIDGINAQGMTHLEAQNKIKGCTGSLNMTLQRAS

T3: GST-PTN-4 PDZ domain fusion protein (Homo sapiens (Human), UniProt P29074 517-605)
T3 construct: also called protein-tyrosine phosphatase meg1; not shown: glutathione S-transferase encoded by vector pGEX-3X (Pharmacia)
T3 sequence: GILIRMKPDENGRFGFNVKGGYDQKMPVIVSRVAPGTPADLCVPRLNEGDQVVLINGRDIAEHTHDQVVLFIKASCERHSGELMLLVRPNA

T4: GST-MPP1 PDZ domain fusion protein (Homo sapiens (Human), UniProt Q00013 67-152)
T4 construct: also called p55; 55 Kd erythrocyte membrane protein; not shown: glutathione S-transferase encoded by vector pGEX-3X (Pharmacia)
T4 sequence: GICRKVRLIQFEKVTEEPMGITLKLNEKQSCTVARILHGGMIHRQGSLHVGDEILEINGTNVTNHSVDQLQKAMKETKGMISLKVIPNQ

T5: GST-cytohesin binding protein PDZ domain fusion protein (Homo sapiens (Human), UniProt O60759 74-165)
T5 construct: also called CBP; not shown: glutathione S-transferase encoded by vector pGEX-3X (Pharmacia)
T5 sequence: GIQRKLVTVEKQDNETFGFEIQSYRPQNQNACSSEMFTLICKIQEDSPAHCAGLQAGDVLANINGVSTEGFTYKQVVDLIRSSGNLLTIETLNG

T6: GST-RGS12 PDZ domain fusion protein (human, UniProt O14924 17-85)
T6 construct: also called human regulator of G-protein signalling 12; not shown: glutathione S-transferase encoded by vector pGEX-3X (Pharmacia)
T6 sequence: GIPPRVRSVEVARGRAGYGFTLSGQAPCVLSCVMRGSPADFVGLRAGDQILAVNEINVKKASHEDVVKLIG

T7: GST-PDZK1 fusion protein (PDZ domains 2-4) (Homo sapiens, UniProt Q5T2W1 134-457)
T7 construct: not shown: glutathione S-transferase encoded by vector pGEX-3X (Pharmacia)
T7 sequence: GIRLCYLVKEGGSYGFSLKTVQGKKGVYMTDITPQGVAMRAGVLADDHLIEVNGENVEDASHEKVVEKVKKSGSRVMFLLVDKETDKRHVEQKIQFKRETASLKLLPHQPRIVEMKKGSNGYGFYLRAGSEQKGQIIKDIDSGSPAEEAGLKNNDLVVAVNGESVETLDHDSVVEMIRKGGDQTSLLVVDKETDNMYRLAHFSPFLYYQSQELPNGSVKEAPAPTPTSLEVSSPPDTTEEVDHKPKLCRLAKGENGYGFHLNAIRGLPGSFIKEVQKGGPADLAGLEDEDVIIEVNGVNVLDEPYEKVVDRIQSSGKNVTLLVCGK

T8: GST-mouse syntenin fusion protein (Mus musculus, UniProt O08992 108-286)
T8 construct: also called Mus musculus Syntenin; not shown: glutathione S-transferase encoded by vector pGEX-3X (Pharmacia)
T8 chain: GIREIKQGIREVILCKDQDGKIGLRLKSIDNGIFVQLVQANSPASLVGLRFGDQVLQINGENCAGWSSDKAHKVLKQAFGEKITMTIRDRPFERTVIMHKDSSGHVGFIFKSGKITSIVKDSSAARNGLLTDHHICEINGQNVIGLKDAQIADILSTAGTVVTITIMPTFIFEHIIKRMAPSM

T9: GST-TAX-IP40 PDZ domain fusion protein (human, UniProt Q6B4M5 150-252 (rat entry))
T9 construct: also called TAX40; not shown: glutathione S-transferase encoded by vector pGEX-3X (Pharmacia)
T9 sequence: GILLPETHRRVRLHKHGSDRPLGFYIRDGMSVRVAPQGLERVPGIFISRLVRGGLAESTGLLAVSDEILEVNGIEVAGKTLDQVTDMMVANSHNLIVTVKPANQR

T10: KIAA0807 (PDZ domain)-GST fusion protein (human, UniProt Q6P0Q8 1104-1192)
T10 construct: also called K807; KIAA807; not shown: glutathione S-transferase encoded by vector pGEX-3X (Pharmacia)
T10 sequence: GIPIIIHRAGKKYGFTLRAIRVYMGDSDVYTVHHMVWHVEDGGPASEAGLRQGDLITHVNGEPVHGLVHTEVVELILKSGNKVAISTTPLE

T11: X11β PDZ-GST fusion protein (Rattus norvegicus (Rat), UniProt O35431 560-745)
T11 construct: Order of GST and PDZ part and limits not seen in the excerpts
T11 chain: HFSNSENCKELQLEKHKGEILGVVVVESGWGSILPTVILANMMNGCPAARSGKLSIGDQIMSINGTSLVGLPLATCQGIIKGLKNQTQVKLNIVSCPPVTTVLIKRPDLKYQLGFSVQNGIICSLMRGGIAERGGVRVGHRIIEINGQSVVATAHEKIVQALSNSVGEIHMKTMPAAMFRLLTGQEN

T12: MINT3 PDZ-GST fusion protein
T12 construct: Order of GST and PDZ part and limits not seen in the excerpts
T12 chain: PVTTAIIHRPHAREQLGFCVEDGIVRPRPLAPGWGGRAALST

T13: K559 PDZ-GST fusion protein (Homo sapiens (Human), UniProt Q9Y6V0 4489-4593)
T13 construct: Order of GST and PDZ part and limits not seen in the excerpts
T13 sequence: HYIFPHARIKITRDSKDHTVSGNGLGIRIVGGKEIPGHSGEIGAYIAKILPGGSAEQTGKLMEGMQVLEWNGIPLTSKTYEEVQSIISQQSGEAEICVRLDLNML

B1: CD105 C-terminal peptide AA16L, biotinylated (peptide)
peptide: Biotin-STNHSIGSTQSTPCSTSSMA
notes: also called CD105 (endoglin)
B2: V-gated Ca2+ channel C-terminal peptide AA46L (peptide)
peptide: Biotin-SSGGRARHSYHHPDQDHWC
notes: Marked (S), sticky peptide with high background; also called V-gated Ca2+ channel (S)
B3: CDw137 (4-1BB ILA) C-terminal peptide AA21L (peptide)
peptide: Biotin-QEEDGCSCRFPEEEEGGCEL
modifications: cysteine pairing not given here
notes: Marked (S), sticky peptide with high background; also called CDw137 (4-1BB ILA) (S)
B4: CD49E C-terminal peptide AA11L, biotinylated (peptide)
peptide: Biotin-PYGTAMEKAQLKPPATSDA
notes: also called CD49E (alpha-4)
B5: CDW125 (IL5R) C-terminal peptide AA28L, biotinylated (peptide)
peptide: Biotin-EVICYIEKPGVETLEDSVF
B6: CD138 C-terminal peptide AA18L, biotinylated (peptide)
peptide: Biotin-PKQANGGAYQKPTKQEEFYA
notes: also called CD138 (syndecan-1); CD138 (syndecan)

These binders were tested against T1, GST-CASK PDZ domain fusion protein (assay: A/G assays).

Row | Binder | binding result
1 | B1 | no binding
2 | B2 | no binding
3 | B3 | no binding
4 | B4 | no binding
5 | B5 | no binding

Each binder was assayed against T2, GST-LIM protein PDZ domain fusion … (assay: A/G assays).

Row | Binder | binding result
6 | B2 | no binding
7 | B3 | no binding
8 | B4 | no binding
9 | B6 | no binding
10 | B5 | no binding

These binders were tested against T3, GST-PTN-4 PDZ domain fusion protein (assay: A/G assays).

Row | Binder | binding result
11 | B1 | no binding
12 | B2 | no binding
13 | B3 | no binding
14 | B4 | no binding
15 | B6 | no binding

What follows are binders tested against T4, GST-MPP1 PDZ domain fusion protein (assay: A/G assays).

Row | Binder | binding result
16 | B1 | no binding
17 | B2 | no binding
18 | B3 | no binding
19 | B4 | no binding
20 | B6 | no binding
21 | B5 | no binding

What follows are binders tested against T5, GST-cytohesin binding protein PDZ … (assay: A/G assays).

Row | Binder | binding result
22 | B1 | no binding
23 | B2 | no binding
24 | B3 | no binding
25 | B4 | no binding
26 | B6 | no binding
27 | B5 | no binding

What follows are binders tested against T6, GST-RGS12 PDZ domain fusion protein (assay: A/G assays).

Row | Binder | binding result
28 | B1 | no binding
29 | B2 | no binding
30 | B3 | no binding
31 | B4 | no binding
32 | B6 | no binding

Each binder was assayed against T7, GST-PDZK1 fusion protein (PDZ domains …) (assay: A/G assays).

Row | Binder | binding result
33 | B1 | no binding
34 | B2 | no binding
35 | B3 | no binding
36 | B4 | no binding
37 | B6 | no binding
38 | B5 | no binding

Biological target: T8, GST-mouse syntenin fusion protein
Test: A/G assays

Row | Binder | binding result
39 | B1 | no binding
40 | B2 | no binding
41 | B3 | no binding
42 | B4 | no binding
43 | B5 | no binding

What follows are binders tested against T9, GST-TAX-IP40 PDZ domain fusion protein (assay: A/G assays).

Row | Binder | binding result
44 | B1 | no binding
45 | B2 | no binding
46 | B3 | no binding
47 | B4 | no binding
48 | B6 | no binding
49 | B5 | no binding

The binders below were run against T10, KIAA0807 (PDZ domain)-GST fusion protein (assay: A/G assays).

Row | Binder | binding result
50 | B1 | no binding
51 | B2 | no binding
52 | B3 | no binding
53 | B4 | no binding
54 | B6 | no binding
55 | B5 | no binding

Biological target: T11, X11β PDZ-GST fusion protein
Test: A/G assays

Row | Binder | binding result
56 | B1 | no binding
57 | B2 | no binding
58 | B3 | no binding
59 | B4 | no binding
60 | B6 | no binding
61 | B5 | no binding

Biological target: T12, MINT3 PDZ-GST fusion protein
Test: A/G assays

Row | Binder | binding result
62 | B1 | no binding
63 | B2 | no binding
64 | B3 | no binding
65 | B4 | no binding
66 | B6 | no binding
67 | B5 | no binding

What follows are binders tested against T13, K559 PDZ-GST fusion protein (assay: A/G assays).

Row | Binder | binding result
68 | B1 | no binding
69 | B2 | no binding
70 | B4 | no binding
71 | B6 | no binding
72 | B5 | no binding

Each binder was assayed against T14, NSP PDZ-GST fusion protein (Homo sapiens (Human), UniProt Q92743 370-466) (assay: A/G assays).
T14 construct: The label NSP is not explained in the excerpts
T14 sequence (Q92743 other isoform, or with tags, fused parts or gaps limits assumed): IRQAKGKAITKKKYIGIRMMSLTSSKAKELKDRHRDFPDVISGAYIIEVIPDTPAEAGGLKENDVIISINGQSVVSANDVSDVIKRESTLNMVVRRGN

Row | Binder | binding result
73 | B1 | no binding
74 | B4 | no binding
75 | B6 | no binding
76 | B5 | no binding

The binders below were run against T15, NOS1 PDZ-GST fusion protein (Homo sapiens (Human), UniProt P29475 11-100) (assay: A/G assays).
T15 construct: Order of GST and PDZ part and limits not seen in the excerpts
T15 sequence (P29475 11-100 limits assumed): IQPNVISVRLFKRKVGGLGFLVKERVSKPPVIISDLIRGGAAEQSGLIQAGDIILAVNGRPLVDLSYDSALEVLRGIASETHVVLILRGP

Row | Binder | binding result
77 | B1 | no binding
78 | B2 | no binding
79 | B3 | no binding
80 | B4 | no binding
81 | B6 | no binding
82 | B5 | no binding
